In PMC8349896 (Molecular cell, 2021):

Key:
SEC = target: the molecule itself; assay: SEC
[1] = target: T1, bacteriophage T7 ejection protein gp15, full length (bacteriophage T7, UniProt P03725 1-747); assay: native gel or EMSA
T1 sequence (looked up): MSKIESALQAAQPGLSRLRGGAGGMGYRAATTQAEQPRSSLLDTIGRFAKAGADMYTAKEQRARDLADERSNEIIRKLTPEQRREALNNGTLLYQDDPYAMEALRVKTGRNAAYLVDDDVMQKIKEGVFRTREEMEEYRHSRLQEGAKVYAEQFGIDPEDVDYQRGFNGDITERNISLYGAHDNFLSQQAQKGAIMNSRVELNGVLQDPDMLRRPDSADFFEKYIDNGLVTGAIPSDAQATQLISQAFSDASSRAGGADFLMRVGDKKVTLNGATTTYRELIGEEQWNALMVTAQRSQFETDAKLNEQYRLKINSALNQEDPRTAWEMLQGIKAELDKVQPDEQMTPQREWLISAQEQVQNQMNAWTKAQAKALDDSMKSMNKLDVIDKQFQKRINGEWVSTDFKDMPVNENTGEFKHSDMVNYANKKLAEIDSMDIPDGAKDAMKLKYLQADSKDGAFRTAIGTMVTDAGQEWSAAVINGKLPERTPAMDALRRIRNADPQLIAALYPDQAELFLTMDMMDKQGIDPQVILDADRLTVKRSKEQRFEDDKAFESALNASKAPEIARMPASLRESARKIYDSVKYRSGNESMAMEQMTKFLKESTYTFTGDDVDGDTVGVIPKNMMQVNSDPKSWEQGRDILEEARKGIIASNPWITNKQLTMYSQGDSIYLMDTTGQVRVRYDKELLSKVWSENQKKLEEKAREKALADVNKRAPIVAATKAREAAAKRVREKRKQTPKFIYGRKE

gp16-N = target: T2, gp16-N (bacteriophage T7, UniProt P03726 1-228); assay: EMSA
T2 sequence: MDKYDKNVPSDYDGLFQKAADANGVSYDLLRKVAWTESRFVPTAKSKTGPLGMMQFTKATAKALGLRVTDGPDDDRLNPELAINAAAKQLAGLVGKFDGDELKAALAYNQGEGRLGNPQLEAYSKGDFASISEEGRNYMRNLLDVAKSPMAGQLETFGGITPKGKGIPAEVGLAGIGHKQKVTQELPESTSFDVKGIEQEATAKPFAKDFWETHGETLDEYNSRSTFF

gp16-C = target: T3, gp16-C (bacteriophage T7, UniProt P03726 275-1318); assay: EMSA
T3 sequence: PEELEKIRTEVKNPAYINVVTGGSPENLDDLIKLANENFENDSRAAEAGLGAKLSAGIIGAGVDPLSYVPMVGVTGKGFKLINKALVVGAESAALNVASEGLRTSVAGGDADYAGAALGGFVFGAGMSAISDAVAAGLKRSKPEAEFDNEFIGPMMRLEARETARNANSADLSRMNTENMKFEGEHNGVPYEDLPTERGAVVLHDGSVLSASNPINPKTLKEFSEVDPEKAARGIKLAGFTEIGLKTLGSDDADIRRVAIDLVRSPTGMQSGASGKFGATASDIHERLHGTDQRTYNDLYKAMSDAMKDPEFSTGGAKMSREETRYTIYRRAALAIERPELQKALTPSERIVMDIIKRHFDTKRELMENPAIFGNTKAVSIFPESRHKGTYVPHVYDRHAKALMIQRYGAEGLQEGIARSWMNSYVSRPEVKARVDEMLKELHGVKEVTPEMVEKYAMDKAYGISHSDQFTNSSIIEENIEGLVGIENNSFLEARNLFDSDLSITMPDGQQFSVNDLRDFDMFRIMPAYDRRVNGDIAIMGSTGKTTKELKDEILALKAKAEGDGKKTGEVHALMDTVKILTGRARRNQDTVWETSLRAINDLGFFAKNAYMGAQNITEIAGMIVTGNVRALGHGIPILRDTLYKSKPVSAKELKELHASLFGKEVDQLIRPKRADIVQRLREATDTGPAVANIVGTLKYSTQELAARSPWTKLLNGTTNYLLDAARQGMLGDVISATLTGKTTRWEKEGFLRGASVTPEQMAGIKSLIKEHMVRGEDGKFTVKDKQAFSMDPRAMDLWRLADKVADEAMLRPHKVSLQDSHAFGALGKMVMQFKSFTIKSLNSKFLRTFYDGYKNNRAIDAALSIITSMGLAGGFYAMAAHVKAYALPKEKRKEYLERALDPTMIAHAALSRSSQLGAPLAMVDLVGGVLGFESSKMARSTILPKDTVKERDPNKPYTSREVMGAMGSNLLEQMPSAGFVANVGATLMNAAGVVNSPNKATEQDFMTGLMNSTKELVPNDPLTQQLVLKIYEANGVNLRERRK

B1: bacteriophage T7 ejection protein gp14 (natural protein, UniProt P03724 1-196, looked up)
chain: MCWAAAIPIAISGAQAISGQNAQAKMIAAQTAAGRRQAMEIMRQTNIQNADLSLQARSKLEEASAELTSQNMQKVQAIGSIRAAIGESMLEGSSMDRIKRVTEGQFIREANMVTENYRRDYQAIFAQQLGGTQSAASQIDEIYKSEQKQKSKLQMVLDPLAIMGSSAASAYASGAFDSKSTTKAPIVAAKGTKTGR
B1: binds (SEC).

B2: gp16-N (bacteriophage T7 gp16 residues 1-228) (domain or fragment, UniProt P03726 1-228, looked up)
chain: T2 sequence
B2: binds [1].

B3: Cy3-dsDNA 24-mer (dsDNA)
DNA 1: GCACTGCAGTAACTTGTCAGTCAT
DNA 2: ATGACTGACAAGTTACTGCAGTGC
B3: no binding (gp16-N); binds (gp16-C).
